Source: publication PMC5131612 (Journal of Structural Biology, 2016)

Legend:
[1] = target: GST-USP12WT (24-370) (human, UniProt O75317 24-370); assay: SPR
[2] = target: T1, His-USP1 (21-785) (human, UniProt O94782 21-785); assay: SEC-MALS
T1 sequence (looked up): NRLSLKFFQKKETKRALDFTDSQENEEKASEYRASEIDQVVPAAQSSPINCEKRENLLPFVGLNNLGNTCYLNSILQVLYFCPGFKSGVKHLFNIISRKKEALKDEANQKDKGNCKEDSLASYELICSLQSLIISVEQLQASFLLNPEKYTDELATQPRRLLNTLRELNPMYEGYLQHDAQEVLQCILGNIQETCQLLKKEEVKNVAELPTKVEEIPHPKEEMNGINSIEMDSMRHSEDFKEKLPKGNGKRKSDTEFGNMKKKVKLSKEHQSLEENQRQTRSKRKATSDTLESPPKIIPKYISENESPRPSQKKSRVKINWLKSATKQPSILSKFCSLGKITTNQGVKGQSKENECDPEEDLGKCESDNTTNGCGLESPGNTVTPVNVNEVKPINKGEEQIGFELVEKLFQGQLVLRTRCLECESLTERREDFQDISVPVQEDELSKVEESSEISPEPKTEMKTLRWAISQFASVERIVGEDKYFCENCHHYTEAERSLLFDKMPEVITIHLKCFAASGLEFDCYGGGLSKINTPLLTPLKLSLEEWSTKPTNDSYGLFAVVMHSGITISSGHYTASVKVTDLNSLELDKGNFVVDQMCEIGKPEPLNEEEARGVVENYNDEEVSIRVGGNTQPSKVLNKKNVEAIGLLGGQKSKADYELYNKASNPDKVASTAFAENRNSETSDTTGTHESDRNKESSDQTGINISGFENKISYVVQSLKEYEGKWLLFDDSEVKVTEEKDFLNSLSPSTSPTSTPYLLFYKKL

Sequence of GST-USP12WT (24-370) (O75317 24-370): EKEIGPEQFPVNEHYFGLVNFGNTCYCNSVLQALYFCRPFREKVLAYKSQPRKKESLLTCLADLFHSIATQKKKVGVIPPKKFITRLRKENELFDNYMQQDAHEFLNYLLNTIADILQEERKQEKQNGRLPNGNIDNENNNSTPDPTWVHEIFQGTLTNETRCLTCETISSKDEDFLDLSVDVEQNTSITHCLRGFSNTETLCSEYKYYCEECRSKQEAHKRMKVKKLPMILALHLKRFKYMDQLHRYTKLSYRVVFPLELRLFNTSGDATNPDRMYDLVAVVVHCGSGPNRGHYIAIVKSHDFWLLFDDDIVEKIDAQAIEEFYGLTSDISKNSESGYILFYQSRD

B1: UAF1FL, UAF1 (9-677) (natural protein)
chain: not shown
- Kd of the second binding event [1]: 325 nM
- stoichiometry N [2]: 2 UAF1 per USP1
